The values below come from patent publication CN113480644A.

The assay addresses SARS-CoV-2 S蛋白 (on virus particles) (SARS-CoV-2) (UniProt P0DTC2). Kind of assay: cell-based or functional assay.

Substance REGN10987 (antibody) registered a 中和效率(IC 50), 假病毒中和 (MLV pseudovirus, ACE2-HEK293) of 0.162 µg/mL.
